# Measured values as given in IntAct's records for PubMed 22164301.
# B1: Protein unc-93 homolog B1 (Homo sapiens), Q9H1C4 (parent)
# chain: MEAEPPLYPMAGAAGPQGDEDLLGVPDGPEAPLDELVGAYPNYNEEEEERRYYRRKRLGVLKNVLAASAGGMLTYGVYLGLLQMQLILHYDETYREVKYGNMGLPDIDSKMLMGINVTPIAALLYTPVLIRFFGTKWMMFLAVGIYALFVSTNYWERYYTLVPSAVALGMAIVPLWASMGNYITRMAQKYHEYSHYKEQDGQGMKQRPPRGSHAPYLLVFQAIFYSFFHLSFACAQLPMIYFLNHYLYDLNHTLYNVQSCGTNSHGILSGFNKTVLRTLPRSGNLIVVESVLMAVAFLAMLLVLGLCGAAYRPTEEIDLRSVGWGNIFQLPFKHVRDYRLRHLVPFFIYSGFEVLFACTGIALGYGVCSVGLERLAYLLVAYSLGASAASLLGLLGLWLPRPVPLVAGAGVHLLLTFILFFWAPVPRVLQHSWILYVAAALWGVGSALNKTGLSTLLGILYEDKERQDFIFTIYHWWQAVAIFTVYLGSSLHMKAKLAVLLVTLVAAAVSYLRMEQKLRRGVAPRQPRIPRPQHKVRGYRYLEEDNSDESDAEGEHGDGAEEEAPPAGPRPGPEPAGLGRRPCPYEQAQGGDGPEEQ
# partner: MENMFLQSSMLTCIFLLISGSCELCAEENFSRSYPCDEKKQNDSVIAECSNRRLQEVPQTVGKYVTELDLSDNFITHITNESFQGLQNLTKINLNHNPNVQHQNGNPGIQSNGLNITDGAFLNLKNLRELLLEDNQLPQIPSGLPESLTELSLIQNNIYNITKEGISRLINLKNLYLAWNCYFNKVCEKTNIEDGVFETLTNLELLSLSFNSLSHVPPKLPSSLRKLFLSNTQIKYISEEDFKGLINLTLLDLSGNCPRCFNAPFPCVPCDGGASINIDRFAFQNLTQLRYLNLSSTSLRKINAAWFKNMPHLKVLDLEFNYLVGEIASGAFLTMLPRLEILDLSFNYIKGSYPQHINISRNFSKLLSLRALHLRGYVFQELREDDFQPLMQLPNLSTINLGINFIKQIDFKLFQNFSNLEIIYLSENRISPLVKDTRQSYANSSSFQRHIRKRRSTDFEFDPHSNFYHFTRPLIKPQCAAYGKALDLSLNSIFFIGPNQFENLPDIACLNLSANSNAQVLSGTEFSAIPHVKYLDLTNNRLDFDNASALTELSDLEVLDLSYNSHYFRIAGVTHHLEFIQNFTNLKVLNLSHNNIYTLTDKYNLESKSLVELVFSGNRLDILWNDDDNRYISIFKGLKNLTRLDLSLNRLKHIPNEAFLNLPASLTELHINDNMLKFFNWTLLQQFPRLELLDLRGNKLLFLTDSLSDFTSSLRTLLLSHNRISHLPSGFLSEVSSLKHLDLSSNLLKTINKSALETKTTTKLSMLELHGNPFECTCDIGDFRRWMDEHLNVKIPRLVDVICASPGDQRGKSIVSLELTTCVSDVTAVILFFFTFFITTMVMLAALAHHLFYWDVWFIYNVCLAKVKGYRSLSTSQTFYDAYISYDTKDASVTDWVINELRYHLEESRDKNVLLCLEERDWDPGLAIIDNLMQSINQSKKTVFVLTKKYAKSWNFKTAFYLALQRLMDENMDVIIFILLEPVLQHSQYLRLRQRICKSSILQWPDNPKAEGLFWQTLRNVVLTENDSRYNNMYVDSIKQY
# B2: Protein unc-93 homolog B1 (Homo sapiens), Q9H1C4 (parent)
# chain: B1 chain
# Variants of: B1
# Details: with tlr8_human TLR8, Q9NR97
row,Variant,effect of a mutation on the interaction
1,H412R,disrupting interaction strength

# Variants of: B2
# Details: with tlr3_human TLR3, O15455
row,Variant,effect of a mutation on the interaction
1,H412R,disrupting interaction strength
